Experimental data from PMC12548662.

Target: Recombinant human α-centractin with an N-terminal His6 tag (human) (UniProt P61163)
Sequence of UniProt P61163 (P61163 whole entry): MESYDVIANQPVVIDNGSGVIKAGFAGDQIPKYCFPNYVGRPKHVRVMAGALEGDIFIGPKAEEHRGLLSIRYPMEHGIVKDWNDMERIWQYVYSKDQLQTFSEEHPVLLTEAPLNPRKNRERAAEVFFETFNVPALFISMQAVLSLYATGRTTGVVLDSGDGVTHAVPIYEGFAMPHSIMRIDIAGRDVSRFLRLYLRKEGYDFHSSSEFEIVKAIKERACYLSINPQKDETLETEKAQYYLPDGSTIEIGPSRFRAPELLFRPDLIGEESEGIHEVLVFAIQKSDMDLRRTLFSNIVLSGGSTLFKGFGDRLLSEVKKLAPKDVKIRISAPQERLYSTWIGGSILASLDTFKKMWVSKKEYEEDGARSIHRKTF

KM of SETD3 for α-centractin (0.2–5 µM), radiochemical methyltransferase assay, 5 min at 37 °C with 1 µM [1H+3H]SAM: 3.83 µM
B1: Recombinant His6-tagged human SETD3 (wild-type) (enzyme)
chain: MGKKSRVKTQKSGTGATATVSPKEILNLTSELLQKCSSPAPGPGKEWEEYVQIRTLVEKIRKKQKGLSVTFDGKREDYFPDLMKWASENGASVEGFEMVNFKEEGFGLRATRDIKAEELFLWVPRKLLMTVESAKNSVLGPLYSQDRILQAMGNIALAFHLLCERASPNSFWQPYIQTLPSEYDTPLYFEEDEVRYLQSTQAIHDVFSQYKNTARQYAYFYKVIQTHPHANKLPLKDSFTYEDYRWAVSSVMTRQNQIPTEDGSRVTLALIPLWDMCNHTNGLITTGYNLEDDRCECVALQDFRAGEQIYIFYGTRSNAEFVIHSGFFFDNNSHDRVKIKLGVSKSDRLYAMKAEVLARAGIPTSSVFALHFTEPPISAQLLAFLRVFCMTEEELKEHLLGDSAIDRIFTLGNSEFPVSWDNEVKLWTFLEDRASLLLKTYKTTIEEDKSVLKNHDLSVRAKMAIKLRLGEKEILEKAVKSAAVNREYYRQQMEEKAPLPKYEESNLGLLESSVGDSRLPLVLRNLEEEAGVQDALNIREAISKAKATENGLVNGENSIPNGTRSENESLNQESKRAVEDAKGSSSDSTAGVKE
